# IntAct's records for PubMed 23415225
# B1: AP-1 complex subunit beta-1 (Homo sapiens), Q10567 (parent)
# chain: MTDSKYFTTTKKGEIFELKAELNSDKKEKKKEAVKKVIASMTVGKDVSALFPDVVNCMQTDNLELKKLVYLYLMNYAKSQPDMAIMAVNTFVKDCEDPNPLIRALAVRTMGCIRVDKITEYLCEPLRKCLKDEDPYVRKTAAVCVAKLHDINAQLVEDQGFLDTLKDLISDSNPMVVANAVAALSEIAESHPSSNLLDLNPQSINKLLTALNECTEWGQIFILDCLANYMPKDDREAQSICERVTPRLSHANSAVVLSAVKVLMKFMEMLSKDLDYYGTLLKKLAPPLVTLLSAEPELQYVALRNINLIVQKRPEILKHEMKVFFVKYNDPIYVKLEKLDIMIRLASQANIAQVLAELKEYATEVDVDFVRKAVRAIGRCAIKVEQSAERCVSTLLDLIQTKVNYVVQEAIVVIKDIFRKYPNKYESVIATLCENLDSLDEPEARAAMIWIVGEYAERIDNADELLESFLEGFHDESTQVQLQLLTAIVKLFLKKPTETQELVQQVLSLATQDSDNPDLRDRGYIYWRLLSTDPVAAKEVVLAEKPLISEETDLIEPTLLDELICYIGTLASVYHKPPSAFVEGGRGVVHKSLPPRTASSESAESPETAPTGAPPGEQPDVIPAQGDLLGDLLNLDLGPPVSGPPLATSSVQMGAVDLLGGGLDSLMGDEPEGIGGTNFVAPPTAAVPANLGAPIGSGLSDLFDLTSGVGTLSGSYVAPKAVWLPAMKAKGLEISGTFTRQVGSISMDLQLTNKALQVMTDFAIQFNRNSFGLAPAAPLQVHAPLSPNQTVEISLPLSTVGSVMKMEPLNNLQVAVKNNIDVFYFSTLYPLHILFVEDGKMDRQMFLATWKDIPNENEAQFQIRDCPLNAEAASSKLQSSNIFTVAKRNVEGQDMLYQSLKLTNGIWVLAELRIQPGNPSCTDLELSLKCRAPEVSQHVYQAYETILKN
# B2: AP-1 complex subunit gamma-1 (Mus musculus), P22892 (parent)
# chain: MPAPIRLRELIRTIRTARTQAEEREMIQKECAAIRSSFREEDNTYRCRNVAKLLYMHMLGYPAHFGQLECLKLIASQKFTDKRIGYLGAMLLLDERQDVHLLMTNCIKNDLNHSTQFVQGLALCTLGCMGSSEMCRDLAGEVEKLLKTSNSYLRKKAALCAVHVIRKVPELMEMFLPATKNLLNEKNHGVLHTSVVLLTEMCERSPDMLAHFRKLVPQLVRILKNLIMSGYSPEHDVSGISDPFLQVRILRLLRILGRNDDDSSEAMNDILAQVATNTETSKNVGNAILYETVLTIMDIKSESGLRVLAINILGRFLLNNDKNIRYVALTSLLKTVQTDHNAVQRHRSTIVDCLKDLDVSIKRRAMELSFALVNGNNIRGMMKELLYFLDSCEPEFKADCASGIFLAAEKYAPSKRWHIDTIMRVLTTAGSYVRDDAVPNLIQLITNSVEMHAYTVQRLYKAILGDYSQQPLVQVAAWCIGEYGDLLVSGQCEEEEPIQVTEDEVLDILESVLISNMSTSVTRGYALTAIMKLSTRFTCTVNRIKKVVSIYGSSIDVELQQRAVEYNALFKKYDHMRSALLERMPVMEKVTTNGPSEIVQTNGETEPAPLETKPPPSGPQPTSQANDLLDLLGGNDITPVIPTAPTSKPASAGGELLDLLGDITLTGAPAAAPTPASVPQISQPPFLLDGLSSQPLFNDIAPGIPSITAYSKNGLKIEFTFERSNTNPSVTVITIQASNSTELDMTDFVFQAAVPKTFQLQLLSPSSSVVPAFNTGTITQVIKVLNPQKQQLRMRIKLTYNHKGSAMQDLAEVNNFPPQSWQ
# partner: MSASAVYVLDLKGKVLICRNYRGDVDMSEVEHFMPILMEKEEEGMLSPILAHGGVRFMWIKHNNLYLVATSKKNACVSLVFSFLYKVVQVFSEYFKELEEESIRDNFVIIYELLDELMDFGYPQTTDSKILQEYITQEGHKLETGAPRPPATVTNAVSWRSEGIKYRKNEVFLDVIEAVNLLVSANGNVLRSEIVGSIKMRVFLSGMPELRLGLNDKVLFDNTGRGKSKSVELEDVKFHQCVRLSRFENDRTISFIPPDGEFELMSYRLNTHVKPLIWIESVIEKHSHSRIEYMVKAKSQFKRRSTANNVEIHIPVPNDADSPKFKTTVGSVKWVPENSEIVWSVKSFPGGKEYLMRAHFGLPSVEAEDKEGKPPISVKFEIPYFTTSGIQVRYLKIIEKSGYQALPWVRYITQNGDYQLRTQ
# Variants of: B1
# Settings: with ap1g1_human AP1G1, O43747
row,effect of a mutation on the interaction,Variant
1,disrupting interaction strength,I85D;V88D

# Variants of: B2
# Settings: with ap1m1_mouse Ap1m1, P35585
row,effect of a mutation on the interaction,Variant
1,disrupting interaction strength,L68D;L71E;L102E
